Publication PMC2443190, “Novel Intermolecular Iterative Mechanism for Biosynthesis of Mycoketide Catalyzed by a Bimodular Polyketide Synthase” (PLoS Biology, 2008)

Target: PKS12Δ1 E20S mutant protein (M. tuberculosis H37Rv) (UniProt I6XD69)

PKS12Δ1 E20S mutant protein (from UniProt I6XD69 1-4151) (enzyme)
catalytic turnover (fold decrease): 5 | product formation by quantitative radio-HPLC (fold decrease): > 5
